The values that follow come from patent publication US20090226525.

What all share (assay): EMSA
In data set [1] the target is HBV core protein K7 mutant (truncated core, C-terminal 7-lysine tail, E77C) (Hepatitis B virus) (UniProt P03149). The following applies: phosphate (P) at end of the sequence; 20 mM NaHCO3 pH 9.5, room temperature, agarose gel.
Data set [2] concerns the target HBV core protein K9 mutant (truncated core, C-terminal 9-lysine tail, E77C) (Hepatitis B virus) (UniProt P03149). The following applies: phosphate (P) at end of the sequence; 20 mM Tris pH 7.7 (p269 states 10 mM Tris), room temperature, agarose gel.
In data set [3] the target is HBV core protein K11 mutant (truncated core, C-terminal 11-lysine tail, E77C) (Hepatitis B virus) (UniProt P03149). The following applies: phosphate (P) at end of the sequence; 20 mM NaHCO3 pH 9.5, room temperature, agarose gel.

Take “GGAAAGACUGUUCCAAAAAUUUUCCUUUCUGACAAGGUUUUU / AAAAACCUUGUCAGAAAGGAAAAUUUUUGGAACAGUCUUUCC [siGLO Cyclophilin B siRNA]”: the Kd in data set [1] stood at 0.37 µM; in data set [2], 0.115 µM; in data set [3], 0.069 µM.
